Tests used:
DgpA/B/C = target: T1, DgpA/B/C (human intestinal bacterium PUE, UniProt A0A3Q9WUX0+A0A3Q9WWX8+A0A3Q9WXL1); assay: inhibition of puerarin cleavage, HPLC; type: biochemical; settings: proposed competitive with puerarin at DgpA pocket; substrate puerarin
T1 sequence (A0A3Q9WWX8 1-367): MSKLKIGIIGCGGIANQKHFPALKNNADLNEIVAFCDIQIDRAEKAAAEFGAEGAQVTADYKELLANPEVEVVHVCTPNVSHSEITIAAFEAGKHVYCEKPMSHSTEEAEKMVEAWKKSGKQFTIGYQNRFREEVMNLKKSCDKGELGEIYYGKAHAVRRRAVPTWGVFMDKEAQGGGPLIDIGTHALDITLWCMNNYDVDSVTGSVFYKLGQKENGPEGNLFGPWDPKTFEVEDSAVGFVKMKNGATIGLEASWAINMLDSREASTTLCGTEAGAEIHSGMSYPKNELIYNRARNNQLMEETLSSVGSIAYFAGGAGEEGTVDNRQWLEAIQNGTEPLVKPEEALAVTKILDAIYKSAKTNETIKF
T1 sequence (A0A3Q9WXL1 1-324): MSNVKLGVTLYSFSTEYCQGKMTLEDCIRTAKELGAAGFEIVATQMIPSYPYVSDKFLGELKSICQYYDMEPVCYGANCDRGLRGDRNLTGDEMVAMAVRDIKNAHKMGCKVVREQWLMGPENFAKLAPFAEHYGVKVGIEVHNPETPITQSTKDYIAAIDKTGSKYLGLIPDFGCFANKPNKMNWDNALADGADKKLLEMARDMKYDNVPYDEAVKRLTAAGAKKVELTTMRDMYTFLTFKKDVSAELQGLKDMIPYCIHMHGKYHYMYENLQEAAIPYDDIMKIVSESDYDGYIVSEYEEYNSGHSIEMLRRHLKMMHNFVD
T1 sequence (A0A3Q9WUX0 1-142): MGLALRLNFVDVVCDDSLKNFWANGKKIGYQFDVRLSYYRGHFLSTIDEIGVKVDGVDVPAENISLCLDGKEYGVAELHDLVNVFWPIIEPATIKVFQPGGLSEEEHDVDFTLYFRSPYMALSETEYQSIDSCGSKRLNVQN

[1] = target: DgpA (human intestinal bacterium PUE); assay: SEC
[2] = target: DgpA (human intestinal bacterium PUE); assay: native gel or EMSA

stoichiometry N [1] | stoichiometry N [2] | Compound | inhibition ratio (DgpA/B/C)
– | – | OC[C@H]1OC(O)[C@H](O)[C@@H](O)[C@@H]1O (stereo partly drawn) [glucose] | cleaving activity of DgpA/B/C was significantly attenuated proportional to glucose concentration
6 | 6 | DgpA (enzyme) | –

From PMC9939296 (Acta Pharmaceutica Sinica. B, 2022)
